Results from the supplement of paper PMC9112550, “Optimization of the antimicrobial peptide Bac7 by deep mutational scanning” (BMC Biology, 2022).

Tested on: Escherichia coli TOP10
Experiment: shrunken log2 fold change of peptide-encoding DNA abundance (4.5 h post-induction vs induction); higher = less antimicrobial activity (less host growth inhibition)
Settings: time post-induction: 4.5 h; library: site-saturation at positions 5, 18, 19, 20
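Further: peptides expressed intracellularly from a pBAD plasmid library in pooled LB shake-flask culture, induced with 0.3% L-arabinose, DNA abundance read by NGS, three biological replicates, DESeq2 with apeglm shrinkage.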

Sequence	shrunken log2 fold change
RRIRCRPPRLPRPRPRPTACPRP	-0.0786
RRIRIRPPRLPRPRPRPKQQPRP	0.0512
RRIRMRPPRLPRPRPRPFKEPRP	-0.00865
RRIRNRPPRLPRPRPRPLGIPRP	-0.169
RRIRGRPPRLPRPRPRPIWNPRP	0.37
RRIRNRPPRLPRPRPRPYGQPRP	-0.124
RRIRVRPPRLPRPRPRPDLSPRP	-0.011
RRIRIRPPRLPRPRPRPCVLPRP	-0.145
RRIRLRPPRLPRPRPRPWRQPRP	-0.121
RRIRMRPPRLPRPRPRPPLYPRP	0.445
RRIRFRPPRLPRPRPRPFNAPRP	-0.415
RRIRERPPRLPRPRPRPLTLPRP	-0.271
RRIRERPPRLPRPRPRPNCCPRP	-0.00112
RRIRSRPPRLPRPRPRPNNGPRP	-0.035
RRIRQRPPRLPRPRPRPTNDPRP	-0.296
RRIRNRPPRLPRPRPRPIYVPRP	-0.892
RRIRQRPPRLPRPRPRPQCEPRP	-0.234
RRIRRRPPRLPRPRPRPSIGPRP	-0.0466
RRIRHRPPRLPRPRPRPGGCPRP	0.165
RRIRTRPPRLPRPRPRPEWSPRP	0.0383
RRIRERPPRLPRPRPRPTNPPRP	-0.182
RRIRDRPPRLPRPRPRPSVPPRP	-0.329
RRIRHRPPRLPRPRPRPYIDPRP	-0.0149
RRIRPRPPRLPRPRPRPTAGPRP	0.252
RRIRHRPPRLPRPRPRPNKKPRP	-0.0825

Sequence	shrunken log2 fold change
RRIRDRPPRLPRPRPRPKKCPRP	0.0235
RRIRRRPPRLPRPRPRPTLVPRP	0.315
RRIRHRPPRLPRPRPRPHRMPRP	-0.46
RRIRIRPPRLPRPRPRPECGPRP	-0.118
RRIRQRPPRLPRPRPRPHHLPRP	-0.122
RRIRWRPPRLPRPRPRPQMDPRP	-0.12
RRIRDRPPRLPRPRPRPNVMPRP	-0.323
RRIRSRPPRLPRPRPRPCYTPRP	-0.0751
RRIRDRPPRLPRPRPRPTLGPRP	1.08
RRIRPRPPRLPRPRPRPMGCPRP	-0.0927
RRIRARPPRLPRPRPRPHYMPRP	-0.381
RRIRARPPRLPRPRPRPPFMPRP	0.376
RRIRNRPPRLPRPRPRPSSNPRP	-0.416
RRIRWRPPRLPRPRPRPSVSPRP	0.104
RRIRPRPPRLPRPRPRPTGMPRP	0.141
RRIRCRPPRLPRPRPRPQNHPRP	-0.612
RRIRCRPPRLPRPRPRPQSTPRP	-0.673
RRIRGRPPRLPRPRPRPYVTPRP	0.0521
RRIRHRPPRLPRPRPRPPDTPRP	-0.071
RRIRHRPPRLPRPRPRPTPPPRP	0.391
RRIRIRPPRLPRPRPRPMNTPRP	-0.207
RRIRDRPPRLPRPRPRPNYKPRP	-0.241
RRIRWRPPRLPRPRPRPFAWPRP	0.179
RRIRWRPPRLPRPRPRPTCKPRP	-0.0078
RRIRTRPPRLPRPRPRPNMKPRP	-0.526
